Assay results published in paper PMC6182141, “Lytic gene expression in the temperate bacteriophage GIL01 is activated by a phage-encoded LexA homologue”.

What was measured:
[1] = target: T1, gp7 (Bacillus thuringiensis phage GIL01) (UniProt Q7WSG2); assay: EMSA; details: SPR: 25 mM Tris-HCl pH 7.4, 140 mM NaCl, 5 mM EDTA, 2 mM DTT, 0.1 mg/ml BSA, 0.005% P20, 25 C; EMSA and footprinting buffers as in cited work
T1 sequence: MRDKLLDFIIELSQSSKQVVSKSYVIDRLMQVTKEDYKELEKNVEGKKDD

[2] = target: T2, gp6 K38A (Bacillus thuringiensis phage GIL01, UniProt Q5ILC6 1-66, K38A); assay: SPR; 2.34-150 nM; SPR: 25 mM Tris-HCl pH 7.4, 140 mM NaCl, 5 mM EDTA, 2 mM DTT, 0.1 mg/ml BSA, 0.005% P20, 25 C; EMSA and footprinting buffers as in cited work; details: protein: recombinant; tags: N-terminal His6 + thrombin site; chain copies: 2; label: 3'-biotin-TEG on S1 capture oligo; 36 bp duplex, 5' overhang 15 nt annealed to immobilized S1 (S39)
T2 sequence: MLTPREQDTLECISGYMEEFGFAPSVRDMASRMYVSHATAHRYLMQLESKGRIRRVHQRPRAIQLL

[3] = target: T3, gp6 (Bacillus thuringiensis phage GIL01, UniProt Q5ILC6); assay: SPR; gp6 2.34-150 nM (Fig. 6D); SPR: 25 mM Tris-HCl pH 7.4, 140 mM NaCl, 5 mM EDTA, 2 mM DTT, 0.1 mg/ml BSA, 0.005% P20, 25 C; EMSA and footprinting buffers as in cited work; details: protein: recombinant; tags: N-terminal His6 + thrombin site; chain copies: 2; label: 3'-biotin-TEG on S1 capture oligo; 36 bp duplex, 5' overhang 15 nt annealed to immobilized S1 (S39)
T3 sequence: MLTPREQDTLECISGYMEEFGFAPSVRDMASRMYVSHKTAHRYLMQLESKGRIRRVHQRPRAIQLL

[4] = target: T3, gp6; assay: SPR; SPR: 25 mM Tris-HCl pH 7.4, 140 mM NaCl, 5 mM EDTA, 2 mM DTT, 0.1 mg/ml BSA, 0.005% P20, 25 C; EMSA and footprinting buffers as in cited work; details: protein: recombinant, tags: N-terminal His6 + thrombin site, chain copies: 2, label: 3'-biotin-TEG on S1 capture oligo, 5' overhang 15 nt annealed to immobilized S1 (S39)

Molecule: TGTTGAACAAGGAATAGTAGAAAAGGACTAGCAAAGTTGCTAGTCTTTTTTATTTGTCCAAAATGACACACGTGTGACGTTATGCGGAACACTCGTTCGTATTATAGTATACATATAGCGAACAAACATTCGATAAGGAGTGTGACAAAGTGGATGCTTTAACGGAACTAATCATAGCTAACAATAAAGTGGAAATGCTT (double strand) [P3 fragment with dinBox2 and dinBox3 (EMSA7/EMSA10)]
- binding [1]: no binding

B1: B23_Swt (gp6 site) (dsDNA)
DNA 1: GTTACTACTCGAGCGATTTGTCCAAAATGACACACGTGTGACGTTATGCGG
DNA 2: CCGCATAACGTCACACGTGTGTCATTTTGGACAAAT
- binding result [2]: no binding
- binding result [3]: binds

B2: B23_Smns (triple mutant gp6 site) (dsDNA)
DNA 1: GTTACTACTCGAGCGATTTGTCCAAAATTACCCACGTATGACGTTATGCGG
DNA 2: CCGCATAACGTCATACGTGGGTAATTTTGGACAAAT
- binding result ([4]; 36 bp duplex): no binding

B3: B23_Lwt (-35, dinBox2, dinBox3) (dsDNA)
DNA 1: GTTACTACTCGAGCGATTTGTCCAAAATGACACACGTGTGACGTTATGCGGAACACTCGTTCGTATTATAGTATACATATAGCGAACAAACATTCGATAAGGAG
DNA 2: CTCCTTATCGAATGTTTGTTCGCTATATGTATACTATAATACGAACGAGTGTTCCGCATAACGTCACACGTGTGTCATTTTGGACAAAT
- binding result ([4]; 89 bp duplex): binds
